Data on five substances can be found in US20160145343A1.

Test [1] addresses MUC1 on MUC1+ human cancer cell lines and tumor tissue (abnormal, e.g. hypoglycosylated, tumor MUC1) (human) (UniProt P15941). The test is described as follows: flow cytometry, HPAF cells, secondary antibody only. Background: Flow cytometry measures light scatter and fluorescence of single cells or particles in a stream.
The target is the same in test [2]. The experiment in a line: flow cytometry, MS+MUC1 cells, secondary antibody only.
Test [3] shares this target. The test is described as follows: flow cytometry, MCF-7 cells, secondary antibody only.
Test [4] shares this target. The test is described as follows: flow cytometry, SKBR-3 cells, secondary antibody only.
Test [5] has the same target. The experiment in a line: flow cytometry, PANC-1 cells, secondary antibody only.
Test [6] has the same target. The experiment in a line: flow cytometry, BT20 cells, secondary antibody only.
The target is the same in test [7]. The experiment in a line: flow cytometry, MS+MUC1 cells.
For test [8] the target is unchanged. The test is described as follows: flow cytometry, BT20 cells.
For test [9] the target is unchanged. The experiment in a line: flow cytometry, PANC-1 cells.
Test [10] has the same target. The experiment in a line: flow cytometry, HPAF cells.
The target is the same in test [11]. The test is described as follows: flow cytometry, SKBR-3 cells.
For test [12] the target is unchanged. The experiment in a line: immunohistochemistry, colon tissue microarray, benign samples.
Test [13] shares this target. The experiment in a line: immunohistochemistry, colon tissue microarray, malignant samples.
Test [14] shares this target. The experiment in a line: flow cytometry, MCF-7 cells.
The target is the same in test [15]. The experiment in a line: immunohistochemistry, colon tissue microarray.

For the substance “Hu-2nd. (APC-labeled secondary antibody only control for the human antibodies)”, the percentage of APC+ stained cells came to 1.02% in [1]; 0.55% in test [2]; 1.73% in test [3]; 0.96% in [4]; 2.01% in [5]; 1.17% in test [6].
With “M-2nd. (APC-labeled secondary antibody only control for the mouse antibodies)”, the percentage of APC+ stained cells in test [1] came out at 0.77%; in [2], 0.46%; in test [3], 1.39%; in test [4], 1.67%; in test [5] it was 3.45%; in test [6] it was 1.74%.
Regarding “VU-4H5 (Abnova), mouse anti-MUC1 antibody”, the percentage of APC+ stained cells in [7] amounted to 24.6%; in [8], 32.9%; in test [9] it was 54.3%; in test [10], 6.99%; in test [11] it was 24.1%; in test [14], 27.8%. This substance had an MUC1+ samples stained (of 3 MUC1+ benign samples) in test [12] of 2. The substance also gave an MUC1+ samples stained (of 114 MUC1+ malignant samples) in [13] of 49.
In the case of “VU-3C6 (Abcam), mouse anti-MUC1 antibody”, the percentage of APC+ stained cells amounted to 99.4% in [7]; 92.3% in test [8]; 98.8% in [9]; 98.4% in test [10]; 99.9% in [11]; 98.7% in test [14].
For the substance “HMPV (BD Biosciences), mouse anti-MUC1 antibody”, in test [15], the samples MUC1+ by staining (of 6 benign samples) was 3 and the samples MUC1+ by staining (of 138 malignant samples) was 114. The same substance returned an MUC1+ samples stained (of 3 MUC1+ benign samples) in test [12] of 3. The MUC1+ samples stained (of 114 MUC1+ malignant samples) in test [13] is 114.
